{"source": "patent US10662230B2", "about": "“Cyclic RGD cell-binding motif and uses thereof” (Spiber Technologies AB, priority 2015, dated 2020)", "molecules": {"B1": {"name": "FNCC-silk: recombinant spider silk protein 4RepCT with N-terminal cysteine-looped RGD motif CTGRGDSPAC (SEQ ID NO: 10) (protein)", "chain": "GPNSCTGRGDSPACGSASGQGGYGGLGQGGYGQGAGSSAAAAAAAAAAAAGGQGGQGQGGYGQGSGGSAAAAAAAAAAAAAAAGRGQGGYGQGSGGNAAAAAAAAAAAAAAAGQGGQGGYGRQSQGAGSAAAAAAAAAAAAAAGSGQGGYGGQGQGGYGQSSASASAAASAASTVANSVSRLSSPSAVSRVSSAVSSLVSNGQVNMAALPNIISNISSSVSASAPGASGCEVIVQALLEVITALVQIVSSSSVGYINPSAVNQITNVVANAMAQVMG", "modifications": "cyclic disulfide loop; Fusion protein; DISULFID (5)..(14)"}}, "key": {"[1]": {"tested_on": "Normal human epidermal keratinocytes (KC)", "assay": "Early attachment assay, keratinocytes on silk films", "type": "cell-based", "description": "Normal human epidermal keratinocytes from adult skin (NHEK-ad) were purchased from Lonza. Subculture, proliferation and migration experiments were done in KGM-Gold (Lonza), containing bovine pituitary extract, whereas adhesion experiments were performed in KGM-CD (chemically defined), supplemented with CaCl2) to give 1.2 mM Ca^2+.\n(§1) Cells were harvested at passage 3-8, seeded at 20 000/cm^2 and allowed to adhere to the films or controls for 1 h in a cell incubator before gentle washing twice with pre-warmed phosphate buffered saline (PBS) followed by 10 min fixation with 96% ethanol. After three washings in water, cells were stained for 30 min with 0.1% Crystal Violet in H2O. Plates were dried after extensive washing in water.\n(§2) Attachment and morphology of cells bound to the films obtained in Example 3 were documented by taking micrographs at 2× and 10× magnification in an inverted bright field microscope. The color was then dissolved in 40 μL 20% acetic acid for 10 min, and 35 μL of the solution was transferred to a 384-well plate for optical density measurement at 595 nm (TECAN Infinite M200). Wells with cells fixed without pre-washing was used as positive control. Wells with no cells were used as blank. Experiments were run in hexaplicates and repeated three times.\nDetermination of cell coverage area within a defined region (9.12 mm^2) of the micrographs (at 2× magnification) was done using the software NIS elements BR (Nikon).\nAfter seeing this positive effect of the introduced FNCC motif, we wanted to find out how well the FNCC-silk would compare to native, full length fibronectin, where the RGD is presented on a turn loop constrained by the structure. We therefore used fibronectin from bovine plasma (BFN) to coat cell culture wells, as well as naked cell culture treated plastic (TCT), on which KC can be cultured, as a control. Serum-free experimental conditions was chosen to avoid possible interactions between the matrices and serum proteins that potentially could give rise to increased cell adherence.\nFor this purpose, we used two FN-silk variants where a linear RGD presentation is expected (FIG. 1a). The first variant (FNVS; SEQ ID NO: 15), contains the original sequence of the RGD-containing motif in fibronectin, to show the effect of the native flanking amino acids without influence of the loop conformation. In the second variant (FNSS; SEQ ID NO: 14), the two flanking cysteines in FNCC were substituted for serine, which resembles cysteine but lacks the —SH-group and is therefore unable to form disulfide bridges. The different FN-silk variants, as well as RGD-silk (SEQ ID NO: 16) and WT-silk (SEQ ID NO: 2), were evaluated with primary KC. Cells were analyzed both for early attachment (FIG. 5), spreading and formation of stress fibers (FIG. 6), and focal adhesions (FIG. 7). Early attachment assay and cellular stainings were performed as detailed in Example 6."}, "[2]": {"tested_on": "dermal keratinocytes (NHEK)", "assay": "Repopulation assay (wound field)", "type": "cell-based, human", "conditions": "0.9 mm wound field, 6 days of culture", "description": "To evaluate the ability of the different silk variants to support repopulation of an open would field, dermal keratinocytes (NHEK) were stained with Oregon green cell trace (Life Technologies) before seeded onto films of FNCC-silk (SEQ ID NO: 13) and WT-silk (SEQ ID NO: 2) at 20 000 cells/cm^2 in 24 well plates. Wound field inserts (CytoSelect™ Wound healing assay, Cell Biolabs) were added into the wells before cell seeding to generate a 0.9 mm wide open would field in the cell monolayer, while keeping the film intact. After 16 h the inserts were removed, and the repopulation process were followed each day and documented by inverted fluorescence microscopy at day 0 (insert removal), day 2 and 4. At day 6 cells were fixed and stained according to the assay protocol, and imaged by inverted bright field microscopy.\nThus, green-traced cells were seeded at high density into wells with inserts preventing cells to reach a defined part of the silk-film, the “wound field”. After monolayer formation outside the wound field, the insert was removed, and repopulation of the gap was documented during 6 days of culture, thus allowing both migration and proliferation of cells."}, "[3]": {"tested_on": "Human dermal microvascular endothelial cells (EC)", "assay": "Early attachment assay, endothelial cells on silk films", "type": "cell-based", "conditions": "1 h adhesion to film", "description": "Human dermal microvascular endothelial cells (EC), (HDMEC, PromoCell GmbH, Germany) isolated from dermis from adult donor were grown in culture flasks coated with gelatin (Sigma Aldrich) in complete endothelial cell media MV, containing 5% fetal bovine serum (PromoCell GmbH, Germany).\nas §1, §2\nFirst, we wanted to investigate how well adherent cells attach and spread on the FNCC-silk (FNCC-4RepCT, SEQ ID NO: 13) compared to linear RGD proteins (RGD-4RepCT, SEQ ID NO: 16) and WT silk proteins (4RepCT, SEQ ID NO: 2) obtained in Example 3. Silk films of the three different variants were prepared in cell culture plates, and human primary endothelial cells (EC), mesenchymal stem cells (MSC) or keratinocytes (KC) were allowed to adhere for 1 h before fixation and staining."}}, "note": "Entries after “also recorded” stand apart in the source; their conditions may differ."}
{"molecule": "B1", "values": [{"measurement": "adhesion in each individual experiment", "setting": "[1]; KC on tested silk films", "value": "most efficient adhesion of the tested films"}, {"measurement": "attachment seen in micrographs", "setting": "[1]; KC, 1 h adhesion to film, crystal violet staining", "value": "clear improvement of attachment is seen on the FNCC films compared to both RGD and WT"}, {"measurement": "cell coverage area within a defined region (9.12 mm^2)", "setting": "[1]; KC, 1 h adhesion to silk films, seeding 20 000/cm2", "value": "increased attachment (i.e. area covered by cells) compared to both FNSS and FNVS; also recorded: significantly higher adhesion of KC compared to RGD-silk"}, {"measurement": "cell coverage area within a defined region (9.12 mm^2)", "setting": "[1]; KC, 1 h adhesion to silk films, seeding 20 000/cm2, listed as FNCC", "value": "significantly larger than on both WT- and RGD-silk"}, {"measurement": "cell coverage area within a defined region (9.12 mm^2)", "setting": "[1]; KC, 1 h adhesion, comparison with bovine fibronectin coating and TCT plastic, serum-free", "value": "bound equally well to the BFN and the FNCC-silk after 1 h adherence, and importantly both significantly better than TCT"}, {"measurement": "OD of dissolved crystal violet", "setting": "[1]; KC, 1 h adhesion, pooled data from 8 experiments (data not shown)", "value": "very similar results"}, {"measurement": "effect of reducing agents added to the silk solution before films were casted", "setting": "[1]; KC, DTT, β-mercaptoethanol or TCEP added", "value": "no differences compared to non-reduced FNCC film were detected"}, {"measurement": "repopulation of the wound field", "setting": "[2]", "value": "efficiently repopulated the wound field on FNCC-silk, which was almost completely covered with cells at the end of the experiment"}, {"measurement": "attachment seen in micrographs", "setting": "[3]; crystal violet staining", "value": "clear improvement of attachment is seen on the FNCC films compared to both RGD and WT"}, {"measurement": "OD of crystal violet dissolved from adhered cells (number of bound cells)", "setting": "[3]; seeding 20 000/cm2", "value": "significantly more cells had bound to the FNCC-silk after 1 h compared to WT silk"}, {"measurement": "OD of crystal violet dissolved from adhered cells (number of bound cells)", "setting": "[3]; seeding 20 000/cm2, listed as FNCC", "value": "Significantly more EC had attached to FNCC also compared to RGD silk"}]}
